Where a chain is given by its changes, count along the chain named. Names and notes keep the numbering of the source.
Legend:
CHIP pS20 = assay: Immunoblot for phospho-S20 CHIP in myocytes; format: cell-based, rat; conditions: cardiomyocytes; cGMP or SIL; DT3 1 μM
Experimental: (§1) Tissue and cultured cardiomyocytes were lysed in 1× lysis buffer (Cell Signaling Technology), protein concentration was measured by bicinchoninic acid assay (Pierce), and extracts were subjected to SDS-PAGE using Novex Tris-Glycine Gels (4-20% gradient gel, Life Technologies) or Mini-protean TGX Gels (4-20% gradient gel, Bio-Rad), transferred to nitrocellulose membranes, and probed with various primary antibodies (CHIP (#2080S), Hsc70 (#8444S), p-CHIP S20 (Custom antibody, AbMart Inc., Shanghai, China; Project: 25011-1), Myc (#2276S), GAPDH (#2118S), and α-tubulin (#3878S) (Cell Signaling) and ubiquitin antibody (#SAB4503053) from Sigma), and fluorescence-labeled secondary antibodies (Licor, #926-32211, 926-32210, 926-68023, or 926-68022). Gels were imaged (Odyssey, Licor) and band intensity quantified (Odyssey Software 3.1).
Human CHIP peptide fragments containing amino acid residues 13-30 were incubated with cGMP/PKG and assayed by MS. […] Phosphorylation was also observed at neighboring S24 and S26, but only when a S20A CHIP mutant was used (FIG. 2D). This indicates the primary target for PKG on CHIP is at S20. A monoclonal phospho-antibody generated against the S20 site in CHIP was tested in vitro with recombinant PKG1α and CHIP, verifying a consistent phospho-S20-CHIP signal. Use of a CHIP-S20A mutant CHIP confirmed specificity (FIG. 2E).

TTR-V122I [1] = assay: TTR abundance in hiPSC-CMs by western blot; format: cell-based, human; conditions: TTR-V122I 5 μM; for TTR accumulation: Ad-Chip 10 MOI; for TTR accumulation with Lamp2A knockdown: siLamp2A 100 μM
Experimental: (§2) Human induced pluripotent stem cell derived cardiomyocytes (hiPSC-CMs) were infected with Ad-Chip WT, SE, or SA (10 MOI), in the presence or absence of protein kinase G (PKG) stimulation via cGMP (100 mM) and exposed to media containing TTR-V122I (5 μM) or control for 14 days. Cells were lysed and TTR abundance was determined by western blotting for TTR with a total protein stain used to show equal loading.
as §2, with “Lamp2A knockdown” for “protein kinase G (PKG) stimulation”, “siRNA (siLamp2A, 100 μM)” for “cGMP (100 mM)”, “loading. Knocking down Lamp2A removes the method of protein degradation known as chaperone mediated autophagy (CMA).” for “loading.”

[2] = test system: neonatal rat cardiomyocytes (NRCMs)
Experimental: After overnight culture, subsets of NRCMs were infected with adenovirus (AdV) containing a FLAG-tagged PDE5, FLAG control, Myc-tagged CHIP WT or K31A (provided by Dr. Cam Patterson), S20E or S20A (Welgen Inc., Worcester, MA). Forty-eight hours after infection, cells were exposed to either simulated ischemia (SI) or normal conditions. SI involved incubating cells in DMEM containing deoxyglucose (20 mM), NaCl (125 mM), KCl (8 mM), KH2PO4 (1.2 mM), MgSO4 (1.25 mM), CaCl2) (1.2 mM), NaHCO3(6.25 mM), sodium lactate (5 mM), and HEPES (20 mM) with a pH of 6.6. Cells were then placed in an incubator chamber (Billups-Rothenberg) with 95% nitrogen, 4% carbon dioxide, and 1% oxygen. Normoxic controls were incubated in DMEM supplemented with 10% FBS in air composed of 95% carbon dioxide and 5% oxygen. RNA or protein was harvested after 48 hours of SI. Cells were also treated with sildenafil (1 μM) or vehicle, or small interference RNA (siRNA, 100 pM) specific for rat Stub1 (Qiagen, Cat. #: SI01532251) or scrambled control provided 24 hours after plating and transfected with Xfect (Takara) per manufacturer protocol.
Lactate dehydrogenase (LDH) leakage and (3-[4,5-dimethylthiazol-2-yl]-2,5-diphenyltetrazolium bromide) (MTT) were assessed in cultured cardiomyocytes and media after SI from the same culture dish. LDH was assayed by commercial assay (Roche) following manufacturer's protocol, read in 96 well microplates on a Spectramax M5 (Molecular Devices) at 490 nm absorbance. For MTT, cells were washed in phosphate-buffered saline, MTT (Sigma-Aldrich) working solution added to the culture dish, incubated at 37° C., solubilized with acidic isopropanol, transferred to a 96 well plate, and read at 570 nm with background subtraction at 650 nm on a Spectramax M5.

Hsp70 (385-641) = target: T1, Hsp70 (385-641) (Homo sapiens, UniProt P0DMV8); assay: Isothermal titration calorimetry of CHIP-Hsp70 binding; conditions: ITC, 25° C.; for enthalpy (DH) / entropy (DS): triplicate, average ± SD
T1 construct: Hsp70 (385-641)
Experimental: Isothermal titration calorimetry was carried out using a TA Instruments NanoITC equilibrated at 25° C. and utilizing a stir speed of 600 rpm. Experiments were conducted in triplicate and data represents the average±one standard deviation. Titrations utilized 350 μM WT or S20E CHIP titrated into 50 µM Hsp70 (385-641) as a series of twenty four 2 μL injections.

Hsc70 = target: T2, Hsc70 (Rattus norvegicus, UniProt P63018); assay: CHIP-Hsc70 co-immunoprecipitation from myocyte lysate; format: cell-based; conditions: myocytes with or without SI, Hsc70 as bait
T2 construct: lysate from myocytes with or without exposure to SI were immunoprecipitated using Hsc70 as bait; endogenous in cells; host or cells: neonatal rat cardiomyocytes infected with adenovirus for Myc-tagged CHIP WT, S20E or S20A
Experimental: as §1
To test whether thermodynamic stabilization of CHIP-HSC70 due to S20 phosphorylation enhances protein binding, lysate from myocytes with or without exposure to SI were immunoprecipitated using Hsc70 as bait. […] Reduced CHIP-Hsc70 interaction was also observed in vivo following MI in hearts with PKG activation suppressed by mPDE5A/oe, whereas this was enhanced in WT hearts (FIG. 5C, FIG. 14B).

TTR-V122I [3] = assay: TTR abundance in cardiac fibroblasts by western blot; format: cell-based; conditions: neonatal rat cardiac fibroblasts, WT or SA 10 MOI, SE 0, 2.5, 5 or 10 MOI, TTR-V122I 5 μM, 14 days
Experimental: Fibroblasts were isolated from neonatal rat hearts and infected with Ad-Chip WT or SA (10 MOI) or SE (0, 2.5, 5, or 10 MOI) and exposed to media containing TTR-V122I (5 μM) for 14 days. Cells were lysed and TTR abundance was determined by western blotting for TTR with a total protein stain used to show equal loading.

myocardial infarction = assay: Myocardial infarction by coronary ligation in CHIP S20E knock-in mice
Excerpt: Male and female mice (aged ˜3-4 months) were subjected to transmural myocardial infarction by mid left anterior descending artery ligation under open thoracotomy (25). Controls underwent open chest surgery and LAD isolation without ligation. Data obtained 1-week after infarction included 2D echocardiography (Vevo2100, 20-MHz; Visualsonics) in conscious mice to measure LV volume and ejection fraction, with analysis blinded to study group.
Myocardium was fixed in 4% paraformaldehyde, paraffin embedded, and sectioned into 4 μm slices, and stained with Masson's Trichrome. Fibrosis was quantified by color-based pixel count and intensity in parallel sections of the ischemic and remote areas (Aperio Image Scope). Transmural infarct size was estimated as the arc angle subtended by dense scar in a mid-MI cross section divided by 360° and expressed as percent. Immunostaining for ubiquitin (Sigma) and CHIP (Cell Signaling) was performed using AlexaFluor 488 conjugated secondary antibodies following the manufacturer's protocol. Counterstain was performed using DAPI (Invitrogen) and Troponin-T (Thermo Scientific) antibodies. Image acquisition was performed on a Leica confocal microscope (TCS SPE II) at 40× magnification.

[4] = target: T3, Hsp40-stimulated ATPase activity of Hsc70 (Homo sapiens, UniProt P11142); assay: Chaperone refolding ATPase activity assay; format: biochemical; conditions: CHIP 0.5-6 μM, Hsc70 0.5 μM, Hsp40 0.25 μM
T3 construct: His-tag (N); made in house; host or cells: E. coli BL21(DE3)
Experimental: Human HSP40 (DnaJB1), human CHIP and CHIP point mutants in pET30a with a C-terminal His-tag and hHsc70 (HSPA8) wild type with an N-terminal His-tag in pCOLA-Duet1 were expressed in BL21(DE3) and purified on Ni-NTA (Qiagen). Hsc70 and CHIP proteins were induced and expressed for 22 hours at 18° C. Hsp40 protein was induced and expressed for 5 hours at 25° C. Required stock solutions of proteins were prepared by diluting high concentrated stocks in protein storage buffer into protein storage buffer, 20 mM HEPES (pH7.4), 150 mM NaCl. Hsc70 and Hsp40 were used at a concentration of 0.5 μM and 0.25 μM, respectively, with a gradient of CHIP protein concentrations (0.5-6 μM). Hsp40-stimulated ATPase activity of Hsc70 was measured using fluorescent polarization with the […]® ADP2 FP Assay (BellBrook Labs, 3010-1K) on a Clariostar plate reader (BMG) in 384 well black, non-binding plates (Greiner, 784900). Optimized instrument settings were used: Excitation wavelength. 590 nm; Emission wavelength: 675 nm; Required value: 5%; Target mP: 20; Gain A: 1824; Gain B: 1854; Focal Height: 12.4 mm. Values of μM ADP formed in the reactions were interpolated from an ATP/ADP standard curve run in parallel.

[5] = 14 days, no Lamp2A knockdown (Example 8)

T1 sequence (P0DMV8 385-641): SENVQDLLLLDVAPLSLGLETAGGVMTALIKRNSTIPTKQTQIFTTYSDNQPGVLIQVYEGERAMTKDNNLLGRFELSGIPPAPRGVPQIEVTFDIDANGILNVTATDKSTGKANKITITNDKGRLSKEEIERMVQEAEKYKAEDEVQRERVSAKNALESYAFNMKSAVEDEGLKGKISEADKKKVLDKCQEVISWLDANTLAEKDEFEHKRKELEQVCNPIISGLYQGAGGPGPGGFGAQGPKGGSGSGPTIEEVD
T3 sequence (P11142 whole entry): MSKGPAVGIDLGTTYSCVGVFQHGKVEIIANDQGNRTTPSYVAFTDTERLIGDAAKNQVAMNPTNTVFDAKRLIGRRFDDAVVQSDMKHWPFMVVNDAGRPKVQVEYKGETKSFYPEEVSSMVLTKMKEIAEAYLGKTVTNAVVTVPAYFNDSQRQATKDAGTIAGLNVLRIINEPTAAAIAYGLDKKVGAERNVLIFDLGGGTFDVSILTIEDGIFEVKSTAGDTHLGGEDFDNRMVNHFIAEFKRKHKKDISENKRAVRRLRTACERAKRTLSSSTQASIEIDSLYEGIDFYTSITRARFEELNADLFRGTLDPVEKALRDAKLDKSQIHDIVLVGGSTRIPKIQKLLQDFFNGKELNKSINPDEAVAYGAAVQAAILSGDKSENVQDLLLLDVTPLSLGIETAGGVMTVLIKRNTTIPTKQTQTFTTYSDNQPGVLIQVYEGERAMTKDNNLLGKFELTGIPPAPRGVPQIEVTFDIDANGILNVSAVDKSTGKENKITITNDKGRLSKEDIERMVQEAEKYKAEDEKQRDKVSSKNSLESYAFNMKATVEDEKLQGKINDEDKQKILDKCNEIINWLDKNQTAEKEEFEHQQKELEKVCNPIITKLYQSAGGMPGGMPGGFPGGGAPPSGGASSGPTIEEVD

Nc1nc2c(ncn2[C@@H]2O[C@@H]3COP(=O)(O)O[C@H]3[C@H]2O)c(=O)[nH]1 [cGMP, cyclic guanosine monophosphate, reference compound]
CHIP pS20 level (CHIP pS20): CHIP pS20 increased
TTR accumulation with PKG stimulation (TTR-V122I [1]; cGMP 100 mM, 14 days): reduce TTR accumulation in Chip WT cells but not in Chip SA cells

B1: S24E: S24E mutant CHIP overexpressed in neonatal myocytes (protein, UniProt Q9WUD1 1-304, looked up, variant S24E)
E3 ubiquitin-protein ligase …: MKGKEEKEGGARLGTGGGGSPDKEPSAQELKEQGNRLFVGRKYPEAAACYGRAITRNPLVAVYYTNRALCYLKMQQPEQALADCRRALELDGQSVKAHFFLGQCQLEMESYDEAIANLQRAYSLAKEQRLNFGDDIPSALRIAKKKRWNSIEERRIHQESELHSYLTRLIAAERERELEECQRNHEGHEDDGHIRAQQACIEAKHDKYMADMDELFSQVDEKRKKRDIPDYLCGKISFELMREPCITPSGITYDRKDIEEHLQRVGHFDPVTRSPLTQEQLIPNLAMKEVIDAFISENGWVEDY
SI-induced cytotoxicity (LDH/MTT ratio) [2]: no significant impact on the cytotoxic response to SI or SI+SIL

B2: S24A: S24A mutant CHIP overexpressed in neonatal myocytes (protein, UniProt Q9WUD1 1-304, looked up, variant S24A)
E3 ubiquitin-protein ligase …: B1 E3 ubiquitin-protein ligase … with E24A
SI-induced cytotoxicity (LDH/MTT ratio) [2]: no significant impact on the cytotoxic response to SI or SI+SIL

B3: S20A/S24A: S20A/S24A combination mutant CHIP (protein, UniProt Q9WUD1 1-304, looked up, variant S20A S24A)
E3 ubiquitin-protein ligase …: B1 E3 ubiquitin-protein ligase … with S20A, E24A
SI-induced cytotoxicity (LDH/MTT ratio) [2]: very similar to those with S20 mutations alone

B4: S20E/S24E: S20E/S24E combination mutant CHIP (protein, UniProt Q9WUD1 1-304, looked up, variant S20E S24E)
E3 ubiquitin-protein ligase …: B1 E3 ubiquitin-protein ligase … with S20E
SI-induced cytotoxicity (LDH/MTT ratio) [2]: very similar to those with S20 mutations alone

B5: CHIP-S20E: CHIP with serine 20 to glutamic acid phospho-mimetic substitution; recombinant protein, adenovirus-expressed, or knock-in mouse (protein)
chain: MKGKEEKEGGARLGAGGGEPEKSPSAQELKEQGNRLFVGRKYPEAAACYGRVITRNPLVAVYYTNRALCYLKMQQHEQALADCRRALELDGQSVKAHFFLGQCQLEMESYDEAIANLQRAYSLAKEQRLNFGDDIPSALRIAKKKRWNSIEERRIHQESELHSYLSRLIAAERERELEECQRNHEGDEDDSHVRAQQACIEAKHDKYMADMDELFSQVDEKRKKRDIPDYLCGKISFELMREPCITPSGITYDRKDIEEHLQRVGHFDPVTRSPLTQEQLIPNLAMKEVIDAFISENGWVEDY
modifications: left off: small tags and cut ends
notes: CHIP with serine 20 to glutamic acid phospho-mimetic substitution; recombinant protein, adenovirus-expressed, or knock-in mouse
increase of Hsp70 affinity as compared to CHIP-WT (Hsp70 (385-641)): 59%
more negative enthalpy as compared to CHIP-WT (Hsp70 (385-641)): 1.34 kcal/mol
enthalpy (DH) (Hsp70 (385-641)): -7.67 ± 0.22 kcal/mol
entropy (DS) (Hsp70 (385-641)): 2.34e-06 ± 8.84e-07 kcal/mol
Kd (Hsp70 (385-641); read-out: increase of Hsp70 affinity as compared to CHIP-WT): ~500 nM
co-precipitation of CHIP and Hsc70 (Hsc70): confirmed
TTR accumulation (TTR-V122I [1]; 14 days (Example 7)): cleared
TTR accumulation (TTR-V122I [1]; [5]): cleared
TTR accumulation with Lamp2A knockdown (TTR-V122I [1]; 14 days): removed the protective effect
TTR accumulation (TTR-V122I [3]): cleared by Chip SE expression in a dose-dependent manner
accumulation of ubiquitinated proteins after MI (myocardial infarction; knock-in mice vs littermate controls, peri-infarct zone): less accumulation of ubiquitinated proteins
mortality after MI (myocardial infarction; male homozygotes and heterozygotes vs littermate controls): lower mortality
infarction size after MI (myocardial infarction; male knock-in mice vs littermate controls): reduced infarction size
heart function after MI (myocardial infarction; male knock-in mice vs littermate controls, echocardiography): improved heart function

B6: CHIP-K31A: CHIP Lys 31 (K30 in humans) to Ala mutant that abolishes CHIP chaperone interactions (protein)
chain: B5 chain with E19S, K30A
modifications: left off: small tags and cut ends
inhibition of Hsp70 ATPase activity [4]: an effect that was lost

B7: CHIP-WT: wild type carboxy terminus of Hsc70-interacting protein (CHIP), recombinant or adenovirus-expressed (protein)
chain: B5 chain with E19S
modifications: left off: small tags and cut ends
enthalpy (DH) (Hsp70 (385-641)): -6.31 ± 0.789 kcal/mol
entropy (DS) (Hsp70 (385-641)): 6.09e-06 ± 1.98e-06 kcal/mol
co-precipitation of CHIP and Hsc70 (Hsc70): confirmed
inhibition of Hsp70 ATPase activity [4]: dose-dependently inhibited
TTR accumulation (TTR-V122I [1]; 14 days (Example 7)): TTR accumulated
TTR accumulation (TTR-V122I [1]; [5]): TTR accumulated
TTR accumulation with Lamp2A knockdown (TTR-V122I [1]; 14 days): exacerbated the accumulation of TTR
TTR accumulation (TTR-V122I [3]): TTR accumulated

— patent US20230374087A1, “METHOD TO IMPROVE PROTEIN QUALITY CONTROL” (The Johns Hopkins University, priority 2020, published 2023)
